Data on two molecules can be found in patent publication US5880093A, “Use of parathormone, its biologically active fragments and correlated peptides, for the preparation of pharmaceutical compositions useful for the treatment of pregnancy” (priority 1992, dated 1999).

“Also recorded” adds a separate entry of the source.

One data set deals with uterine contractions. The data set is described as follows: clinical observation of pregnant women with symptoms of likely premature birth (cardiotocography, arterial pressure, heart rate). In kind it is in vivo, human. Here is the method:
Three pregnant women having symptoms indicating the likelihood of premature birth have been observed while in their 34-36th week of pregnancy. […] Arterial pressure, heart rate and skin coloring were evaluated. The women were clearly aware of the contractions and of the pain caused by such contractions.
The women were administered 100 Units of synthetic Parathormone 1-34 (two vials according to Examples 1 and 2) by rapid infusion (10 minutes), diluted in 200 cc of physiological solution. Two blood samples were taken before and after infusion and the serum was frozen and stored at -20° C. for the evaluation of the mineral elements (calcium, phosphorous, magnesium, alkaline phosphatase, parathormone, progesterone, estradiol).

Another data set concerns rat uterus. The conditions noted are these: in vitro, studies reported in the literature; cited from earlier work.
A further data set has as its system human myometrium. Description: in vitro motility of fragments of myometrium of pregnant women, contraction induced by oxytocin. As to conditions: PTH 8.5×10^-8 M, oxytocin 1×10^-2 U, myometrium taken during Caesarean birth, FIG. 2 vs FIG. 1. An excerpt:
Experimental Trials on the in vitro motility of fragments of myometrium of pregnant women

The test system of data set [1] is contractions induced by PGF2alpha. The data set is described as follows: contractions induced by PGF2alpha. In kind it is in vivo. The conditions noted are these: PGF2alpha 1 mg/kg; PTH 4×10^-4 mg/Kg; FIG. 4 vs FIG. 3. The source says:
Furthermore. Parathormone, has also been essayed for the contractions induced by PGF2alpha according to the technique described in the British Journal of Pharmacology 93: 185-191 (1988).

Setting [2] is: three pregnant women, 34-36th week, 100 Units by rapid infusion (10 minutes).

With Parathormone 1-34, the “arterial pressure and heart rate of the mother” value with uterine contractions (100 Units by rapid infusion) is recorded as “did not show variations of worthwhile note”. In the data set on uterine contractions (100 Units by rapid infusion, pain particularly in the lumbar-sacral region), the “patient-reported uterine contractions and pain caused by the contractions” value was “immediate disappearance of uterine contractions and of pain”. Besides, the fetal heart beat entry with uterine contractions (cardiotocography, 40 minutes monitoring, 100 Units by rapid infusion, FIG. 5) was “did not show variations and remained within the normal limits”. Further, in the data set with uterine contractions (period of monitoring 40 minutes, 100 Units by rapid infusion, FIG. 5), the “cardiotocography waves referring to uterine contractions” value was “disappearance of waves referring to uterine contractions”. Also, in the data set with uterine contractions (setting [2]), the “efficacy on uterine contractility” value is “efficacy of Parathormone on uterine contractility”; the “side effects in mother and fetus” value was “no side effects have been noted either in the mother or the fetus; also recorded: no side effects were noted in relation to the infusion of the drug”.

B1: Parathormone (protein, UniProt P01270 32-115, looked up)
Parathyroid hormone: SVSEIQLMHNLGKHLNSMERVEWLRKKLQDVHNFVALGAPLAPRDAGSQRPRKKEDNVLVESHEKSLGEADKADVNVLTKAKSQ
modifications: Parathyroid hormone
notes: intact (whole) human parathyroid hormone
Turning to B1, the “action on contractility of the rat uterus induced by oxytocin, acetylcholine and prostaglandin” value with rat uterus is recorded as “inhibitory action”. In addition, the “effect on contraction of human myometrium induced by oxytocin” value with human myometrium was “net inhibitory effect”; in the data set on human myometrium (listed as intact human parathormone), “inhibitory effect (flat trace)”. Also, the “effect on contractions induced by PGF2alpha (intensity and duration)” value in data set [1] is “clear inhibitory effect both in terms of intensity and duration”.
